The text below walks through data of publication PMC7840992.

This assay addresses luminGAVPO (luminescent GAVPO), Nluc-GAVPO fusion with NG configuration.

For the substance “luminGAVPO (luminescent GAVPO), Nluc-GAVPO fusion with NG configuration”, the induction ratio of a Gluc reporter driven by Gal4 binding sites, HEK293 cells, furimazine alone 0-25 uM, maximum at 2.5 uM was found to be 116 fold.
